B1: CDC25A (parent)
chain: TVAGKHQDLKYISPEIMASVLNGK

Variants of: B1
Test: protein stability index of a GFP-peptide fusion (GPS, HEK-293T) (PSI 1-6); higher = more stable
Conditions: c terminus: a fixed tail appended
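Further: lentivirally expressed fusions sorted by FACS into six bins by GFP to DsRed ratio, PSI derived from sequencing read proportions per bin multiplied by bin number.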

In order of rising protein stability index:
1. K10W  1.62
2. D8W  1.68
3. K10I  1.69
4. E15W  1.76
5. K10Y  1.76
6. E15I  1.78
7. K10F  1.78
8. E15Y  1.84
9. P14C  1.85
10. S19L  1.86
11. D8F  1.87
12. S19Y  1.88
13. K24F  1.89
14. E15V  1.89
15. K10L  1.9
16. D8Y  1.9
17. N22F  1.93
18. S19W  1.94
19. N22W  1.95
20. A18W  1.97
21. E15L  1.99
22. K24L  2.01
23. K24I  2.01
24. S19F  2.01
25. P14M  2.02
26. D8L  2.05
27. E15F  2.07
28. S13W  2.12
29. P14W  2.13
30. S19V  2.13
31. A18I  2.13
32. S19I  2.16
33. S13I  2.19
34. E15M  2.19
35. P14H  2.19
36. H6W  2.24
37. P14F  2.24
38. K10V  2.24
39. E15C  2.25
40. D8M  2.25
41. D8R  2.28
42. Q7F  2.3
43. S13M  2.31
44. D8C  2.32
45. G23W  2.33
46. A18M  2.33
47. G23Y  2.35
48. D8I  2.35
49. Q7W  2.36
50. Q7I  2.37
51. G23F  2.37
52. S19M  2.38
53. S13F  2.39
54. P14L  2.4
55. N22Y  2.41
56. P14A  2.41
57. K24C  2.42
58. S13C  2.43
59. K24H  2.44
60. M17W  2.46
61. Q7N  2.46
62. G23M  2.46
63. S19C  2.46
64. G23I  2.48
65. S13L  2.49
66. Q7Y  2.49
67. D8Q  2.5
68. D8H  2.51
69. K10C  2.52
70. N22C  2.53
71. A18L  2.53
72. A18V  2.54
73. D8K  2.54
74. N22V  2.55
75. P14T  2.55
76. P14S  2.55
77. N22L  2.56
78. G23P  2.56
79. D8T  2.56
80. Q7K  2.6
81. G23V  2.61
82. Q7L  2.62
83. D8N  2.62
84. S13Y  2.63
85. E15T  2.63
86. V20I  2.63
87. G23L  2.63
88. G23C  2.63
89. D8S  2.63
90. M17L  2.64
91. Q7R  2.64
92. I12W  2.64
93. E15R  2.64
94. S13V  2.65
95. A18Y  2.65
96. D8A  2.65
97. N22M  2.66
98. D8V  2.66
99. K24A  2.67
100. E15K  2.68
101. Q7T  2.69
102. K10M  2.69
103. Q7M  2.7
104. P14V  2.7
105. S13H  2.71
106. M17I  2.71
107. N22R  2.71
108. A18R  2.71
109. V20Y  2.72
110. A18F  2.73
111. E15H  2.74
112. P14I  2.76
113. N22I  2.77
114. E15A  2.77
115. Y11F  2.77
116. S19G  2.77
117. M17F  2.78
118. Y11W  2.78
119. Q7C  2.79
120. P14Y  2.79
121. K10R  2.8
122. L9W  2.81
123. E15Q  2.82
124. S19T  2.83
125. N22G  2.84
126. V20W  2.84
127. V20L  2.84
128. Q7A  2.85
129. K10Q  2.85
130. I16Y  2.85
131. I16L  2.86
132. K24G  2.87
133. P14Q  2.87
134. I16W  2.87
135. I16F  2.87
136. N22T  2.88
137. K10H  2.88
138. S19H  2.88
139. G23H  2.9
140. P14R  2.91
141. D8P  2.91
142. N22A  2.92
143. V20F  2.92
144. V20C  2.93
145. I12F  2.94
146. N22K  2.94
147. E15N  2.95
148. N22H  2.96
149. P14K  2.96
150. G23A  2.96
151. K10S  2.99
152. K10A  2.99
153. G23S  3.01
154. E15P  3.05
155. Q7D  3.06
156. D8G  3.06
157. Q7G  3.08
158. E15G  3.08
159. A18H  3.08
160. L9Y  3.08
161. E15S  3.09
162. M17Y  3.1
163. S19A  3.1
164. A18N  3.1
165. L9F  3.1
166. A18C  3.11
167. S13P  3.12
168. L9C  3.13
169. P14G  3.14
170. S13T  3.15
171. S13K  3.16
172. L21F  3.16
173. Q7S  3.16
174. I12L  3.16
175. Y11M  3.16
176. A18K  3.16
177. L21W  3.17
178. Q7V  3.17
179. L21Y  3.18
180. S13R  3.21
181. K10P  3.21
182. D8E  3.21
183. M17T  3.22
184. I12C  3.23
185. Q7P  3.24
186. S19K  3.24
187. H6Y  3.25
188. G23T  3.25
189. L9I  3.25
190. Y11L  3.26
191. Q7H  3.27
192. N22S  3.27
193. L9V  3.27
194. S19Q  3.28
195. I12H  3.29
196. P14N  3.29
197. Y11V  3.29
198. Y11A  3.29
199. S19R  3.29
200. L9M  3.29
201. A18S  3.3
202. K10T  3.31
203. S13N  3.32
204. Y11C  3.32
205. V20H  3.33
206. L9S  3.33
207. K10N  3.34
208. A18Q  3.34
209. L21I  3.35
210. G23K  3.36
211. S13G  3.37
212. I12Y  3.37
213. N22Q  3.37
214. G23R  3.37
215. L9P  3.37
216. V20N  3.38
217. S13A  3.4
218. L21M  3.4
219. N22P  3.4
220. P14D  3.4
221. G23Q  3.4
222. S19D  3.41
223. M17C  3.42
224. M17V  3.42
225. E15D  3.42
226. K10E  3.42
227. I16K  3.42
228. K10G  3.44
229. A18G  3.44
230. I16C  3.44
231. L9A  3.44
232. A18D  3.45
233. I12N  3.46
234. Y11Q  3.47
235. I16V  3.47
236. L9T  3.47
237. I12M  3.48
238. I12A  3.49
239. P14E  3.49
240. L9R  3.51
241. Q7E  3.52
242. Y11I  3.52
243. S13Q  3.53
244. Y11K  3.53
245. L21C  3.54
246. L21V  3.54
247. N22D  3.54
248. V20M  3.56
249. V20A  3.56
250. I12P  3.57
251. G23D  3.57
252. I12R  3.58
253. Y11R  3.59
254. A18P  3.6
255. K24D  3.61
256. S19N  3.61
257. I16M  3.62
258. I16T  3.62
259. V20P  3.64
260. L21N  3.65
261. S19P  3.65
262. L9H  3.65
263. I16A  3.66
264. V20Q  3.68
265. S13E  3.69
266. G23E  3.69
267. L21R  3.7
268. I12V  3.71
269. Y11S  3.71
270. L9Q  3.71
271. L9N  3.72
272. S13D  3.73
273. M17Q  3.73
274. K24E  3.73
275. V20K  3.73
276. Y11H  3.73
277. I16R  3.73
278. M17N  3.74
279. A18T  3.74
280. L9K  3.74
281. V20T  3.75
282. I12T  3.76
283. L9G  3.77
284. I16S  3.78
285. V20G  3.79
286. Y11T  3.79
287. L21S  3.8
288. M17H  3.8
289. I16N  3.8
290. I12G  3.82
291. L21G  3.83
292. L21A  3.83
293. I12K  3.83
294. I12E  3.83
295. L21T  3.84
296. I16G  3.84
297. K10D  3.85
298. Y11N  3.86
299. M17R  3.87
300. Y11G  3.87
301. M17G  3.88
302. M17D  3.89
303. G23N  3.9
304. I12S  3.91
305. N22E  3.92
306. L9E  3.94
307. Y11P  3.95
308. M17A  3.96
309. M17K  3.96
310. I16H  3.97
311. V20R  3.99
312. L21Q  4
313. M17P  4
314. A18E  4
315. L21E  4.02
316. I12Q  4.04
317. L21D  4.05
318. L21H  4.05
319. S19E  4.06
320. L21P  4.08
321. Y11E  4.09
322. L9D  4.09
323. V20E  4.1
324. V20S  4.11
325. M17S  4.12
326. I12D  4.16
327. M17E  4.21
328. L21K  4.25
329. I16D  4.25
330. I16Q  4.28
331. I16E  4.29
332. V20D  4.35
333. Y11D  4.38
334. I16P  4.45

From the supplement of paper PMC10567573
